# Assay results from patent US20060141546A1, “Bacterial test method by glycated label binding” (priority 2002, published 2006).
# B1: ALP: bovine intestinal alkaline phosphatase, glycoprotein enzyme that binds bacteria and serves as label (protein, UniProt P19111 20-506, looked up)
# Intestinal-type alkaline …: LVPVEEEDPAFWNRQAAQALDVAKKLQPIQTAAKNVILFLGDGMGVPTVTATRILKGQMNGKLGPETPLAMDQFPYVALSKTYNVDRQVPDSAGTATAYLCGVKGNYRTIGVSAAARYNQCKTTRGNEVTSVMNRAKKAGKSVGVVTTTRVQHASPAGAYAHTVNRNWYSDADLPADAQMNGCQDIAAQLVNNMDIDVILGGGRKYMFPVGTPDPEYPDDASVNGVRKRKQNLVQAWQAKHQGAQYVWNRTALLQAADDSSVTHLMGLFEPADMKYNVQQDHTKDPTLQEMTEVALRVVSRNPRGFYLFVEGGRIDHGHHDDKAYMALTEAGMFDNAIAKANELTSELDTLILVTADHSHVFSFGGYTLRGTSIFGLAPSKALDSKSYTSILYGNGPGYALGGGSRPDVNDSTSEDPSYQQQAAVPQASETHGGEDVAVFARGPQAHLVHGVEEETFVAHIMAFAGCVEPYTDCNLPAPTTATSIPD
# What was measured:
# Proteus mirabilis = test: ALP binding compared to E. coli (Table 1)
# Experimental: (§1) Bacterial cells ([…] to 10^8 cells/mL) were washed twice with water after centrifugation to separate the cells into a packed pellet from supernatant liquid. The washed cells in pellet form were suspended in 40 μL water and 10 μL of aqueous bovine intestinal alkaline phosphatase (ALP) was added (2 μg or […]). The mixture was left at room temperature for 30 minutes and then centrifuged, after which the bacterial pellets were washed with water 4-5 times (50 μL). All the washing supernatants were combined. A blank without cells was diluted in the same way. The final pellets were suspended in 50 μl water and both supernatants and cell suspensions were assayed for detection of ALP binding using 2.5 μl of 0.005 M para-nitrophenol phosphate (PNPP) in Tris or EPPS buffer at pH 7.5. The hydrolysis of the substrate results in yellow (PNPP) or blue-green (BCIP) color that is directly proportional to the amount of ALP bound to the bacteria. Alkaline phosphatase (ALP) activity was tested using common substrates such as BCIP (bromo-chloro-indolyl-phosphate) forming a blue/green color in Tris buffer, pH 7.5. After 10 minutes at room temperature the samples were read in a plate reader (Biotek Powerwave Absorbance Reader) at a wavelength of 405 nm. The parallel set of bacteria was run without addition of ALP as controls.
# (§2) The bacteria used to illustrate the invention represent the extremes of gram positive (S. facaelis) and gram negative (E. coli) bacteria. […] The nature of the difference in the cell walls is greatest between the gram negative and positive forms of bacteria.
# Klebsiella pneumoniae = test: ALP binding compared to E. coli (Table 1)
# Experimental: as §1, §2
# Citrobacter koseri = test: ALP binding compared to E. coli (Table 1)
# Experimental: as §1, §2
# Morganella morganii = test: ALP binding compared to E. coli (Table 1)
# Experimental: as §1, §2
# Pseudomonas aeruginosa = test: ALP binding compared to E. coli (Table 1)
# Experimental: as §1, §2
# Serratia marcescens = test: ALP binding compared to E. coli (Table 1)
# Experimental: as §1, §2
# Klebsiella oxytoca = test: ALP binding compared to E. coli (Table 1)
# Experimental: as §1, §2
# Citrobacter freundii = test: ALP binding compared to E. coli (Table 1)
# Experimental: as §1, §2
# Diphtheroids (gnb) = test: ALP binding compared to E. coli (Table 1)
# Experimental: as §1, §2
# [1] = system: Yeasts including Candida albicans; test: ALP binding compared to Sf (Table 1)
# Experimental: as §1, §2
# Lactobacillus = test: ALP binding compared to Sf (Table 1)
# Experimental: as §1, §2
# [2] = system: Coagulase negative staphylococcus sp.; test: ALP binding compared to Sf (Table 1)
# Experimental: as §1, §2
# Group B streptococcus = test: ALP binding compared to Sf (Table 1)
# Experimental: as §1, §2
# Enterococcus sp. = test: ALP binding compared to Sf (Table 1)
# Experimental: as §1, §2
# [3] = system: Staphylococcus aureus & saprophyicus; test: ALP binding compared to Sf (Table 1)
# Experimental: as §1, §2
# Streptococcus viridans = test: ALP binding compared to Sf (Table 1)
# Experimental: as §1, §2
# bacteria = test: Effect of divalent cations on ALP binding to bacteria (Example 7, Table 5, FIG. 12)
# Experimental: Bacterial cells (1 to 4.5×10^7 cells/mL) were washed twice with water after centrifugation to separate cells into a packed pellet from the supernatant liquid. The washed cells in pellet form were suspended in 20 μL of EPPS buffer (50 mM at pH 8.0) and 30 μL of water. […]
# The mixture of glycated protein and bacterial cells was left at 25° C. for 15 minutes. The mixture was then centrifuged at 30,000 rpm for 30 minutes after which the bacterial cells formed a pellet at the bottom of the tube and were washed with water 4-5 times (50 μL). Centrifugation allows separation of glycoprotein bound to the bacteria cells from unbound glycated protein(s).
# After washing, the bacterial pellets were suspended in 50 μL of borate buffer (25 mM at pH 9.0). A 5 μL aliquot of the suspension was assayed for detection of ALP binding by adding 5 μL of para-nitrophenol phosphate (PNPP, 100 mM), 50 μL sodium borate buffer (25 mM at pH 9.0) and 140 μL of water. […] The color was read at 405 nm using an ELISA plate reader between 15-30 min; the absorbance is directly proportional to the amount of ALP bound to the bacteria cell.
# [4] = system: Escherichia Coli (E. Coli); test: Bacteria assay by binding of intestinal ALP (Example 1, FIG. 8, Table 1)
# Experimental: as §1
# E. coli = test: Membrane (Loprodyne) separation of bacteria bound ALP (Example 6, Table 4); type: binding
# Experimental: Bacteria bound to alkaline phosphatase (ALP) can be separated using a membrane (low protein binding Nylon 66 Loprodyne) on backed microtiter plates (Nunc Nalge International).
# The loprodyne-membrane-backed plates were treated with 1 or 2% detergent (Tween 20 or TritonX305) in water or buffers (TBS: Tris, 25 mM, pH 7.6 containing 150 mM NaCl or KCO3: 0.1M, pH 9.6) overnight at room temperature. Blocking solutions were vacuum filtered. […] The combined solution was incubated for 15 min at 37° C. on a shaker and then added to the loprodyne-membrane-backed plate.
# The solution was vacuum filtered leaving bacteria adhered on the membrane and then washed twice with 2% Tween20 in water. To the washed membrane, 200 μl of H2O with 50 μl Glycine (0.05M, pH 10.4) and containing 1 mM PNPP were added and the color formed due to the bacteria bound ALP read at 405 nm.
# The separation of E. Coli with bound ALP from unbound ALP is shown by a size exclusion membrane in Example 6 and by centrifugation in Examples 1-5. The size of E. Coli is 1×1×2 μm and any membrane, filter or device trapping particles of this size would be acceptable. These include microfluidic devices, filters, column chromatography and chromatography strips. The mass of E. Coli is 1.6×10^−12 gm/cell and any membrane, filter or device trapping a mass of this size would be also acceptable.
# [5] = system: gram negative and positive bacteria; test: Bacteria assay by binding of intestinal ALP, all strains (Example 1); conditions: for ALP binding to bacterial strains tested: FIG. 8, Table 1
# Experimental: as §1, §2
# [6] = system: Staphylococcus aureus (Sf) strains # 3 and #6; test: Bacteria assay by binding of intestinal ALP (Example 1, FIG. 8); conditions: gram positive, strains # 3 and #6, FIG. 8
# Experimental: as §1
molecule,measurement,setting,value
B1,ALP binding relative to E. coli,Proteus mirabilis,104%
same,ALP binding relative to E. coli,Klebsiella pneumoniae,105%
same,ALP binding relative to E. coli,Citrobacter koseri,93%
same,ALP binding relative to E. coli,Morganella morganii,95%
same,ALP binding relative to E. coli,Pseudomonas aeruginosa,99%
same,ALP binding relative to E. coli,Serratia marcescens,101%
same,ALP binding relative to E. coli,Klebsiella oxytoca,111%
same,ALP binding relative to E. coli,Citrobacter freundii,89%
same,ALP binding relative to E. coli,Diphtheroids (gnb),91%
same,ALP binding relative to sf.,[1],93%
same,ALP binding relative to sf.,Lactobacillus,100%
same,ALP binding relative to sf.,[2],88%
same,ALP binding relative to sf.,Group B streptococcus,96%
same,ALP binding relative to sf.,Enterococcus sp.,100%
same,ALP binding relative to sf.,[3],100%
same,ALP binding relative to sf.,Streptococcus viridans,102%
same,"O.D. at 405 nm, With ALP",bacteria; No. cation,0.30 O.D.
same,bacteria concentration at which ALP binding could be monitored,"bacteria; different strains of bacteria, 1 mM Zn^2+, FIG. 12",10^5
same,ALP binding relative to E. coli,[4]; Escherichia coli,100%
same,ALP binding to bacteria (ALP activity of suspended cells after ALP treatment and washings),"[4]; gram negative, strains # 9 and 14, FIG. 8",found to bind the ALP
same,Bacteria Binding to ALP (O.D. at 405 nm),"E. coli; No Bacteria, ALP concentration 1.0 mU",0.04 O.D.
same,Bacteria Binding to ALP (O.D. at 405 nm),"E. coli; No Bacteria, ALP concentration 2.0 mU",0.05 O.D.
same,Bacteria Binding to ALP (O.D. at 405 nm),"E. coli; No Bacteria, ALP concentration 5.0 mU",0.16 O.D.
same,Bacteria Binding to ALP (O.D. at 405 nm),"E. coli; Plus Bacteria, ALP concentration 1.0 mU",0.13 O.D.
same,Bacteria Binding to ALP (O.D. at 405 nm),"E. coli; Plus Bacteria, ALP concentration 2.0 mU",0.30 O.D.
same,Bacteria Binding to ALP (O.D. at 405 nm),"E. coli; Plus Bacteria, ALP concentration 5.0 mU",0.83 O.D.
same,ALP binding to bacterial strains tested,[5],binding occurred to all other gram negative and positive bacteria
same,ALP binding to bacterial strains tested,[5]; listed as intestinal ALP,binding to all bacterial strains tested
same,amount of ALP bound or activity generated versus amount of bacteria cells,[5]; FIG. 9,directly proportional to the amount of bacteria cells present
same,difference of ALP binding between strains relative to S. facaelis or E. coli,[5]; changes of strain among gram negative and positive bacteria,≤ 12%
same,ALP binding to bacteria (ALP activity of suspended cells after ALP treatment and washings),[6],found to bind the ALP
